Laboratory results taken from US20240024490A1, “BIFUNCTIONAL MOLECULES FOR SELECTIVE MODIFICATION OF TARGET SUBSTRATES” (The Broad Institute, Inc., priority 2021, published 2024).

Target: SmBiT fused to the N-terminus of BCR-ABL
Test: NanoBiT split-luciferase complementation in cells, LgBiT and SmBiT at the N-terminus of BCR-ABL; complex induced by a homo-bifunctional small molecule (homo-PHICS)

**Q.** Which fold increase in luminescence compared to the DMSO/background does the source give for “LgBiT fused to the N-terminus of BCR-ABL (enzyme)” here?
**A.** Its fold increase in luminescence compared to the DMSO/background is 6 fold.
